The assay addresses T1, myostatin (Bos taurus, UniProt O18836).
T1 sequence (O18836 267-375): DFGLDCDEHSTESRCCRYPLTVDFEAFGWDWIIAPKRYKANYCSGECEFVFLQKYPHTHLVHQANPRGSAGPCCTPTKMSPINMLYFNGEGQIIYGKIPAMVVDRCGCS
The assay can be described thus: MSV/canonical myostatin competition in C2C12 proliferation assay. Conditions: 1.5 μg/ml Mstn. Format: cell-based, bovine. How it is done:
Competition of roMSV65 with canonical myostatin was carried out with C2C12 murine myoblasts. Myoblasts were seeded in 96-well tissue culture plates (Nunc, Roskilde, Denmark) at a cell density of 1000 cells per well in 200 μl of Dulbecco's modified Eagle's medium (DMEM, Invitrogen, California) supplemented with foetal bovine serum (FBS, 10% v/v, Invitrogen), penicillin (1×10^5 IU/l, Sigma, St Louis, Mo., USA) and streptomycin (100 mg/l, Sigma) buffered with NaHCO3 containing phenol red (7.22 nmol/l) as a pH indicator, and incubated overnight at 37° C. with 5% CO2. The medium was replaced with DMEM 10% FBS test medium containing no added protein, 1.5 or 2.5 μg/ml recombinant myostatin alone and with combination of 1, 2, 4, 10, 20 molar ratio of roMSV65, and the same amounts of roMSV65 without myostatin in a semi-random arrangement of eight replicates (n=8) for each test medium. Plates were incubated at 37° C. with 5% CO2 for 72 hours, and then the medium was removed. […] The plates were gently shaken and the absorbance was measured at 655 nm using a microplate photometer (VersaMax, Molecular Devices, CA).
Competition of roMSV47 with canonical myostatin was carried out with C2C12 murine myoblasts. […] The plates were gently shaken and the absorbance was measured at 655 nm using a microplate photometer (VersaMax, Molecular Devices, CA). […]

These results are taken from patent US8455448B2, “Myostatin isoform” (Myostin Therapeutics Pty Ltd, priority 2004, dated 2013).

With “roMSV47: 47 amino acid C-terminal mature ovine MSV fragment (SEQ ID NO: 50), recombinant from E. coli (IIFLEVYIQFCSILGEAVFKRQSKSIHFCQNFKIIACLCNTAAFRMK; Ovis aries)”, where the note is “1:10 molar ratio of myostatin to MSV, 69 h, FIG. 11”, the “restoring of myostatin inhibited proliferation” value was “ineffective at restoring proliferation”.

B1: roMSV65: 65 amino acid C-terminal peptide of ovine MSV (SEQ ID NO: 49) expressed as recombinant protein in E. coli (protein)
chain: VHFYTPPYGQWIFHKERKIIFLEVYIQFCSILGEAVFKRQSKSIHFCQNFKIIACLCNTAAFRMK
modifications: Ovis aries
Take B1: the “overcoming myostatin-induced inhibition of proliferation” value (48 h, FIG. 9) is reported as “overcame myostatin-induced inhibition of proliferation”.
